Literature values in PMC5257249.
Read-outs that look alike come from different tables or passages of the source.

How the values were obtained:
[1] = target: MMOH (Methylococcus capsulatus) (UniProt P22869); assay: fluorescence anisotropy
[2] = target: MMOH (Methylococcus capsulatus) (UniProt P22869); assay: fluorescence anisotropy; remark: listed apart in the source

UniProt P22869, sequence (P22869 whole entry, chain 1 of 3): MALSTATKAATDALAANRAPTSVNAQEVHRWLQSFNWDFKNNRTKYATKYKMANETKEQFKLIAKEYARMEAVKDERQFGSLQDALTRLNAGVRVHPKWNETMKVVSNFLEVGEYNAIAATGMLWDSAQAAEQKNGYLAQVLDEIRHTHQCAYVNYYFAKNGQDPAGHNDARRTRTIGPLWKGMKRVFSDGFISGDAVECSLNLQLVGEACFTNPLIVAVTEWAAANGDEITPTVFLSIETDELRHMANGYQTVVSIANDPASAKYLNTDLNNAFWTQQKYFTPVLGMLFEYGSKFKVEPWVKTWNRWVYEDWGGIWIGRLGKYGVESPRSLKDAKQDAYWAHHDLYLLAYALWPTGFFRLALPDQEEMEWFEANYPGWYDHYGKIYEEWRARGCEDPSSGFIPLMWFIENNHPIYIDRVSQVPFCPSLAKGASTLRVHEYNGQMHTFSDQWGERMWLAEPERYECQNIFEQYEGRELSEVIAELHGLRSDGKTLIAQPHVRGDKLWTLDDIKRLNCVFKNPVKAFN
UniProt P22869, sequence (P18798 2-389, chain 2 of 3, further chain): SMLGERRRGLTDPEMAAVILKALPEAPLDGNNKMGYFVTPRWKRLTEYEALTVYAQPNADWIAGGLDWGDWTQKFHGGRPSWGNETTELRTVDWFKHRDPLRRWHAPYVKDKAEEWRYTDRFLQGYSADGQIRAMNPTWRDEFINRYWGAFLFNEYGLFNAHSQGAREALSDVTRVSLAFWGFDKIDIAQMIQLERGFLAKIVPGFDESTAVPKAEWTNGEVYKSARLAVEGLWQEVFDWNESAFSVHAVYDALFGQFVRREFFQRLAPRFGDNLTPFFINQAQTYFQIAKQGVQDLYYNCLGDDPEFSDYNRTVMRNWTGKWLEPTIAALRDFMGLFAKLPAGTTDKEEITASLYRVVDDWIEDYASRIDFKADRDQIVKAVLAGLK
UniProt P22869, sequence (P11987 2-170, chain 3 of 3, further chain): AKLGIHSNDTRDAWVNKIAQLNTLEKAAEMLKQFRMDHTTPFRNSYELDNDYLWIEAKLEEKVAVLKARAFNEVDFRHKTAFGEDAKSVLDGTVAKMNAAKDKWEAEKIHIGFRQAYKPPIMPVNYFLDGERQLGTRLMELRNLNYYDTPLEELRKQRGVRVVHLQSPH

Kd [1]: 170 nM
Kd [2]: 550 nM
Substance: MMOB (from UniProt P18797)
